Data as given in patent US20220160843A1 (priority 2019, published 2022).

Tests used:
[1] = test system: P. aeruginosa; test: Minimal inhibitory concentration (MIC), modified CLSI broth microdilution in CAA or CAA/HuS; format: cell-based, Pseudomonas aeruginosa; settings: for MIC (μg/mL) in CAA: CAA media; for MIC (μg/mL in CAA/HuS) / MIC value in CAA/HuS: CAA supplemented with 25% human serum
[2] = test system: carbapenem-resistant clinical strain, WC-452; test: Checkerboard assay to examine synergy with antibiotics in CAA/HuS; format: cell-based, P. aeruginosa
Method: Fractional inhibitor concentration index (FICI) values were determined for all combinations; values of <0.5 indicate synergy.
(§1) The checkerboard assays is based on a modification of the CLSI method for MIC determination by broth microdilution (26, 29). Checkerboards were constructed by first preparing columns of a 96-well polypropylene microtiter plate, in which each well had the same amount of antibiotic diluted 2-fold along the horizontal axis. […] Summation fractional inhibitory concentrations (ΣFICs) were calculated for each drug and the minimum ΣFIC value (ΣFICmin) was used to determine synergy. ΣFICs were calculated as follows: ΣFIC=FIC A+FIC B, where FIC A is the MIC of each antibiotic in the combination/MIC of each antibiotic alone, and FIC B is the MIC of each GN lysin in the combination/MIC of each GN lysin alone. The combination is considered synergistic when the ΣFIC is ≤0.5, strongly additive when the ΣFIC is >0.5 to <1, additive with the ΣFIC is 1−<2, and antagonistic when the ΣFIC is ≥2.

[3] = test system: carbapenem-resistant P. aeruginosa strains; test: Resensitization of carbapenem-resistant clinical strains using carbapenems in combination with lysins; format: cell-based
Method: as §1
Up to seven carbapenem-resistant isolates were assessed. […] See Clinical and Laboratory Standards Institute (CLSI), CLSI. […] M100 Performance Standards for Antimicrobial Susceptibility Testing; 29th Edition. Clinical and Laboratory Standards Institute, Wayne, Pa.

[4] = test system: P. aeruginosa strain ATCC 17647; test: Minimal Biofilm Eradicating Concentration (MBEC), Calgary Biofilm Device; format: cell-based, Pseudomonas aeruginosa; settings: 24 h biofilm, 24 h treatment; minimum concentration removing >95% of biofilm biomass (crystal violet)
Source text: All samples were examined in triplicate.

[5] = test system: P. aeruginosa; test: Time-kill assay of GN lysin activity; format: cell-based, Pseudomonas aeruginosa; settings: for Log10 CFU/mL T = 3 hr / Log10 CFU/mL T = l hr: lysin 10 μg/mL, T = 0 7.8; for Log10 CFU/mL T = 3 hr: buffer control 7.2, limit of detection 3.7; for Log10 CFU/mL T = l hr: buffer control 7.7; for bactericidal activity in the time-kill assay format: 3-hour timepoint, 10 μg/mL, in either CAA/HuS or HEPES buffer
Method: All treatments were incubated at 37° C. with aeration.

[6] = test system: human erythrocytes; format: cell-based
Method: The hemolytic activity of the GN lysins was measured as the amount of hemoglobin released by the lysis of human erythrocytes (30). Briefly, 3 ml of fresh human blood cells (hRBCs) obtained from pooled healthy donors (BioreclamationIVT) in a polycarbonate tube containing heparin was centrifuged at 1,000×g for 5 min at 4° C. The erythrocytes obtained were washed three times with phosphate-buffered saline (PBS) solution (pH 7.2) and resuspended in […]. […] Intact erythrocytes were pelleted by centrifugation at 1,000×g for 5 min at 4° C., and the supernatant was transferred to a new 96-well plate. The release of hemoglobin was monitored by measuring the absorbance at 570 nm.

[7] = CAA/HuS, ‡ indicates bactericidal activity
[8] = HEPES buffer, ‡ indicates bactericidal activity

B1: GN121: Modified GN37, C-terminal peptide RKKTRKRLKKIGKVLKWI, SEQ ID NO: 13 (protein)
chain: MTYTLSKRSLDNLKGVHPDLVAVVHRAIQLTPVDFAVIEGLRSVSRQKELVAAGASKTMNSRHLTGHAVDLAAYVNGIRWDWPLYDAIAVAVKAAAKELGVAIVWGGDWTTFKDGPHFELDRSKYRRKKTRKRLKKIGKVLKWI
With B1 the “MIC (μg/mL) in CAA” value [1] was 0.5 µg/mL, the “MIC (μg/mL in CAA/HuS)” value [1] was 0.5 µg/mL and the MIC value in CAA/HuS [1] was 0.5 µg/mL. The “synergy with antibiotics in the checkerboard assay” value [2] was “synergize with a range of antibiotics”, the “FICI, Amikacin” value ([2]; lysin + amikacin) was 0.375 and the “FICI, Azithromycin” value ([2]; lysin + azithromycin) was 0.188. For the same molecule, the “FICI, Aztreonam” value ([2]; lysin + aztreonam) was 0.625, the “FICI, Ciprofloxacin” value ([2]; lysin + ciprofloxacin) was 0.313 and the “FICI, Colistin” value ([2]; lysin + colistin) was 0.375. The “FICI, Fosfomycin” value ([2]; lysin + fosfomycin) was 0.375, the “FICI, Gentamicin” value ([2]; lysin + gentamicin) was 0.375 and the “FICI, Imipenem” value ([2]; lysin + imipenem) was 0.375. For the same molecule, the “FICI, Meropenem” value ([2]; lysin + meropenem) was 0.313, the “FICI, Piperacillin” value ([2]; lysin + piperacillin) was 0.375 and the “FICI, Rifampicin” value ([2]; lysin + rifampicin) was 0.313. For the same molecule, the “FICI, Tobramycin” value ([2]; lysin + tobramycin) was 0.188, the “GN121 Alone” value ([3]; isolate PA19, MIC of GN121 alone (imipenem checkerboard)) was 1 µg/mL and the “GN121 Alone” value ([3]; isolate PA19, MIC of GN121 alone (meropenem checkerboard)) was 2 µg/mL. The “GN121 Combination” value ([3]; isolate PA19, MIC of GN121 in combination with imipenem) was 0.125 µg/mL, the “GN121 Combination” value ([3]; isolate PA19, MIC of GN121 in combination with meropenem) was 0.5 µg/mL and the FICI ([3]; isolate PA19, imipenem + GN121) was 0.155. For the same molecule, the FICI ([3]; isolate PA19, meropenem + GN121) was 0.281, the “GN121 Alone” value ([3]; isolate PA20, MIC of GN121 alone (imipenem checkerboard)) was 1 µg/mL and the “GN121 Alone” value ([3]; isolate PA20, MIC of GN121 alone (meropenem checkerboard)) was 2 µg/mL. For the same molecule, the “GN121 Combination” value ([3]; isolate PA20, MIC of GN121 in combination with imipenem) was 0.25 µg/mL, the “GN121 Combination” value ([3]; isolate PA20, MIC of GN121 in combination with meropenem) was 0.5 µg/mL and the FICI ([3]; isolate PA20, imipenem + GN121) was 0.265. The FICI ([3]; isolate PA20, meropenem + GN121) was 0.313, the “GN121 Alone” value ([3]; isolate PA21, MIC of GN121 alone (imipenem checkerboard)) was 1 µg/mL and the “GN121 Alone” value ([3]; isolate PA21, MIC of GN121 alone (meropenem checkerboard)) was 1 µg/mL. For the same molecule, the “GN121 Combination” value ([3]; isolate PA21, MIC of GN121 in combination with imipenem) was 0.125 µg/mL, the “GN121 Combination” value ([3]; isolate PA21, MIC of GN121 in combination with meropenem) was 0.125 µg/mL and the FICI ([3]; isolate PA21, imipenem + GN121) was 0.155. For the same molecule, the FICI ([3]; isolate PA21, meropenem + GN121) was 0.188, the “GN121 Alone” value ([3]; isolate PA22, MIC of GN121 alone (imipenem checkerboard)) was 2 µg/mL and the “GN121 Alone” value ([3]; isolate PA22, MIC of GN121 alone (meropenem checkerboard)) was 1 µg/mL. For the same molecule, the “GN121 Combination” value ([3]; isolate PA22, MIC of GN121 in combination with imipenem) was 0.25 µg/mL, the “GN121 Combination” value ([3]; isolate PA22, MIC of GN121 in combination with meropenem) was 0.25 µg/mL and the FICI ([3]; isolate PA22, imipenem + GN121) was 0.188. For the same molecule, the FICI ([3]; isolate PA22, meropenem + GN121) was 0.313, the “GN121 Alone” value ([3]; isolate PA23, MIC of GN121 alone (imipenem checkerboard)) was 1 µg/mL and the “GN121 Alone” value ([3]; isolate PA23, MIC of GN121 alone (meropenem checkerboard)) was 2 µg/mL. For the same molecule, the “GN121 Combination” value ([3]; isolate PA23, MIC of GN121 in combination with imipenem) was 0.25 µg/mL, the “GN121 Combination” value ([3]; isolate PA23, MIC of GN121 in combination with meropenem) was 0.5 µg/mL and the FICI ([3]; isolate PA23, imipenem + GN121) was 0.257. The FICI ([3]; isolate PA23, meropenem + GN121) was 0.375, the “GN121 Alone” value ([3]; isolate PA24, MIC of GN121 alone (imipenem checkerboard)) was 1 µg/mL and the “GN121 Alone” value ([3]; isolate PA24, MIC of GN121 alone (meropenem checkerboard)) was 1 µg/mL. The “GN121 Combination” value ([3]; isolate PA24, MIC of GN121 in combination with imipenem) was 0.125 µg/mL, the “GN121 Combination” value ([3]; isolate PA24, MIC of GN121 in combination with meropenem) was 0.125 µg/mL and the FICI ([3]; isolate PA24, imipenem + GN121) was 0.155. For the same molecule, the FICI ([3]; isolate PA24, meropenem + GN121) was 0.156, the “GN121 Alone” value ([3]; isolate WC-452, MIC of GN121 alone (meropenem checkerboard)) was 1 µg/mL and the “GN121 Combination” value ([3]; isolate WC-452, MIC of GN121 in combination with meropenem) was 0.06 µg/mL. The FICI ([3]; isolate WC-452, meropenem + GN121) was 0.123, the “resensitization of carbapenem-resistant isolates to IPM and MEM” value ([3]; synergistic combinations with imipenem or meropenem, breakpoints ≤2 sensitive, 4 intermediate, ≥8 resistant) was “reductions of IPM and MEM MICS to below breakpoint values” and the “MBEC” value [4] was 0.25 µg/mL. The “Log10 CFU/mL T = 3 hr” value [5, 7] was <3.7‡ Log10 CFU/mL, the “Log10 CFU/mL T = l hr” value ([5]; CAA/HuS) was 7.4 Log10 CFU/mL and the “Log10 CFU/mL T = 3 hr” value [5, 8] was <3.7‡ Log10 CFU/mL. The “Log10 CFU/mL T = l hr” value [5, 8] was <3.7‡ Log10 CFU/mL.

B2: GN3: Native lysin, WP_012273008.1/Lysozyme, SEQ ID NO: 2 (protein, listed as Pseudomonas putida)
chain: MRTSQRGLSLIKSFEGLRLQAYQDSVGVWTIGYGTTRGVKAGMKISKDQAERMLLNDVQRFEPEVERLIKVPLNQDQWDALMSFTYNLGAANLESSTLRRLLNAGNYAAAAEQFPRWNKAGGQVLAGLTRRRAAERELFLGAA
For B2, the “MIC (μg/mL) in CAA” value [1] was 16 µg/mL, the “MIC (μg/mL in CAA/HuS)” value [1] was 16 µg/mL and the MIC value in CAA/HuS [1] was 16 µg/mL. For the same molecule, the hemolytic activity [6] was “no hemolytic activity whatsoever”, the “MBEC” value [4] was 0.25 µg/mL and the “bactericidal activity in the time-kill assay format” value [5] was “bactericidal activity”. The “Log10 CFU/mL T = 3 hr” value [5, 7] was <3.7‡ Log10 CFU/mL, the “Log10 CFU/mL T = l hr” value ([5]; CAA/HuS) was 5.8 Log10 CFU/mL and the “Log10 CFU/mL T = 3 hr” value [5, 8] was <3.7‡ Log10 CFU/mL. For the same molecule, the “Log10 CFU/mL T = l hr” value [5, 8] was <3.7‡ Log10 CFU/mL.

B3: GN17: Native lysin, GenBank ACD38663.1, SEQ ID NO: 24 (protein, listed as Pseudomonas aeruginosa)
chain: MTLRYGDRSQEVRQLQRRLNTWAGANLYEDGHFGAATEDAVRAFQRSHGLVADGIAGPKTLAALGGADCSHLLQNADLVAAATRLGLPLATIYAVNQVESNGQGFLGNGKPAILFERHIMYRRLAAHDQVTADQLAAQFPALVNPRPGGYAGGTAEHQRLANARQIDDTAALESASWGAFQIMGFHWQRLGYISVQAFAEAMGRSESAQFEAFVRFIDTDPALHKALKARKWADFARLYNGPDYKRNLYDNKLARAYEQHANCAEASA
With B3 the “MIC (μg/mL) in CAA” value [1] was 32 µg/mL, the “MIC (μg/mL in CAA/HuS)” value [1] was 16 µg/mL and the hemolytic activity [6] was “no hemolytic activity whatsoever”. For the same molecule, the “MBEC” value [4] was 0.125 µg/mL, the “bactericidal activity in the time-kill assay format” value [5] was “bactericidal activity” and the “Log10 CFU/mL T = 3 hr” value [5, 7] was 4.2‡ Log10 CFU/mL. The “Log10 CFU/mL T = l hr” value ([5]; CAA/HuS) was 6.4 Log10 CFU/mL, the “Log10 CFU/mL T = 3 hr” value [5, 8] was <3.7‡ Log10 CFU/mL and the “Log10 CFU/mL T = l hr” value [5, 8] was 5.4 Log10 CFU/mL.

B4: GN13: Native lysin, GenBank YP_00638255.1, SEQ ID NO: 23 (protein)
chain: MSDKRVEITGNVSGFFESGGRGVKTVSTGKGDNGGVSYGKHQLASNNGSMALFLESPFGAPYRAQFAGLKPGTAAFTSVYNKIANETPTAFERDQFQYIAASHYDPQAAKLKAEGINVDDRHVAVRECVFSVAVQYGRNTSIIIKALGSNFRGSDKDFIEKVQDYRGATVNTYFKSSSQQTRDSVKNRSQQEKQMLLKLLNS
modifications: Pseudomonas phage Lu11
With B4 the “MIC (μg/mL) in CAA” value [1] was 8 µg/mL, the “MIC (μg/mL in CAA/HuS)” value [1] was >128 µg/mL and the hemolytic activity [6] was “no hemolytic activity whatsoever”. For the same molecule, the “MBEC” value [4] was 0.125 µg/mL.
